Tested on: Escherichia coli TOP10
Experiment: shrunken log2 fold change of peptide-encoding DNA abundance (4.5 h post-induction vs induction); higher = less antimicrobial activity (less host growth inhibition)
Conditions: time post-induction: 4.5 h; library: site-saturation at positions 5, 18, 19, 20
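Also: peptides expressed intracellularly from a pBAD plasmid library in pooled LB shake-flask culture, induced with 0.3% L-arabinose, DNA abundance read by NGS, three biological replicates, DESeq2 with apeglm shrinkage.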

| Sequence | shrunken log2 fold change |
| --- | --- |
| RRIRHRPPRLPRPRPRPSVKPRP | -0.364 |
| RRIRHRPPRLPRPRPRPSYFPRP | -0.628 |
| RRIRHRPPRLPRPRPRPSYHPRP | -1.11 |
| RRIRHRPPRLPRPRPRPTALPRP | 0.0443 |
| RRIRHRPPRLPRPRPRPTCQPRP | -0.044 |
| RRIRHRPPRLPRPRPRPTCRPRP | -0.232 |
| RRIRHRPPRLPRPRPRPTCVPRP | 0.134 |
| RRIRHRPPRLPRPRPRPTCYPRP | -0.272 |
| RRIRHRPPRLPRPRPRPTDTPRP | -0.116 |
| RRIRHRPPRLPRPRPRPTDVPRP | -0.217 |
| RRIRHRPPRLPRPRPRPTEQPRP | -0.185 |
| RRIRHRPPRLPRPRPRPTFFPRP | 0.0852 |
| RRIRHRPPRLPRPRPRPTFHPRP | -0.326 |
| RRIRHRPPRLPRPRPRPTGKPRP | -0.00448 |
| RRIRHRPPRLPRPRPRPTHDPRP | 0.124 |
| RRIRHRPPRLPRPRPRPTHIPRP | -0.468 |
| RRIRHRPPRLPRPRPRPTIEPRP | -0.0518 |
| RRIRHRPPRLPRPRPRPTINPRP | -0.459 |
| RRIRHRPPRLPRPRPRPTKIPRP | -0.316 |
| RRIRHRPPRLPRPRPRPTKPPRP | 0.0121 |
| RRIRHRPPRLPRPRPRPTKTPRP | -0.194 |
| RRIRHRPPRLPRPRPRPTKWPRP | 0.0132 |
| RRIRHRPPRLPRPRPRPTLIPRP | 0.0888 |
| RRIRHRPPRLPRPRPRPTLPPRP | -0.00384 |
| RRIRHRPPRLPRPRPRPTMDPRP | -0.179 |

| Sequence | shrunken log2 fold change |
| --- | --- |
| RRIRHRPPRLPRPRPRPTMSPRP | -0.11 |
| RRIRHRPPRLPRPRPRPTNWPRP | 0.0467 |
| RRIRHRPPRLPRPRPRPTPAPRP | 0.681 |
| RRIRHRPPRLPRPRPRPTPSPRP | 0.276 |
| RRIRHRPPRLPRPRPRPTQDPRP | 1.87 |
| RRIRHRPPRLPRPRPRPTQIPRP | 0.51 |
| RRIRHRPPRLPRPRPRPTRFPRP | 1.65 |
| RRIRHRPPRLPRPRPRPTRYPRP | -0.453 |
| RRIRHRPPRLPRPRPRPTSCPRP | -0.125 |
| RRIRHRPPRLPRPRPRPTSFPRP | 0.0399 |
| RRIRHRPPRLPRPRPRPTTKPRP | 0.00227 |
| RRIRHRPPRLPRPRPRPTWDPRP | 0.0552 |
| RRIRHRPPRLPRPRPRPTWIPRP | -0.206 |
| RRIRHRPPRLPRPRPRPTYNPRP | -0.758 |
| RRIRHRPPRLPRPRPRPVASPRP | -0.122 |
| RRIRHRPPRLPRPRPRPVDTPRP | -0.508 |
| RRIRHRPPRLPRPRPRPVENPRP | -0.0355 |
| RRIRHRPPRLPRPRPRPVEPPRP | 0.109 |
| RRIRHRPPRLPRPRPRPVFNPRP | -0.532 |
| RRIRHRPPRLPRPRPRPVGDPRP | -0.206 |
| RRIRHRPPRLPRPRPRPVGPPRP | 0.195 |
| RRIRHRPPRLPRPRPRPVICPRP | -0.0717 |
| RRIRHRPPRLPRPRPRPVLCPRP | -0.273 |
| RRIRHRPPRLPRPRPRPVNCPRP | 0.00367 |
| RRIRHRPPRLPRPRPRPVNFPRP | -0.636 |

| Sequence | shrunken log2 fold change |
| --- | --- |
| RRIRHRPPRLPRPRPRPVPLPRP | -0.396 |
| RRIRHRPPRLPRPRPRPVQMPRP | 0.0393 |
| RRIRHRPPRLPRPRPRPVRGPRP | 0.328 |
| RRIRHRPPRLPRPRPRPVRIPRP | 0.0159 |
| RRIRHRPPRLPRPRPRPVSMPRP | -0.0784 |
| RRIRHRPPRLPRPRPRPVSRPRP | -0.0482 |
| RRIRHRPPRLPRPRPRPVSVPRP | -0.225 |
| RRIRHRPPRLPRPRPRPVTHPRP | -0.12 |
| RRIRHRPPRLPRPRPRPVVMPRP | -0.245 |
| RRIRHRPPRLPRPRPRPVYIPRP | -0.0204 |
| RRIRHRPPRLPRPRPRPWASPRP | -0.0831 |
| RRIRHRPPRLPRPRPRPWDIPRP | 0.0726 |
| RRIRHRPPRLPRPRPRPWDRPRP | -0.0232 |
| RRIRHRPPRLPRPRPRPWFCPRP | -0.583 |
| RRIRHRPPRLPRPRPRPWHHPRP | 0.0223 |
| RRIRHRPPRLPRPRPRPWHNPRP | -0.261 |
| RRIRHRPPRLPRPRPRPWHYPRP | 0.137 |
| RRIRHRPPRLPRPRPRPWILPRP | -0.223 |
| RRIRHRPPRLPRPRPRPWIWPRP | -0.0845 |
| RRIRHRPPRLPRPRPRPWKNPRP | -0.187 |
| RRIRHRPPRLPRPRPRPWLHPRP | -0.00987 |
| RRIRHRPPRLPRPRPRPWLLPRP | -0.397 |
| RRIRHRPPRLPRPRPRPWLRPRP | -0.0716 |
| RRIRHRPPRLPRPRPRPWMMPRP | -0.463 |
| RRIRHRPPRLPRPRPRPWPGPRP | -0.327 |

— the supplement of paper PMC9112550, “Optimization of the antimicrobial peptide Bac7 by deep mutational scanning” (BMC Biology, 2022)
